Experimental findings from publication PMC6039487 are described below.

Experiment [1] addresses wild-type MC4R (melanocortin 4 receptor), expressed from mCherry-2A-MC4R (human) (UniProt P32245).
Experiment [2] concerns the target MC4R(L328Ter), expressed from mCherry-2A-MC4R (human) (UniProt P32245).
The target in experiment [3] is MC4R(C319Ter), expressed from mCherry-2A-MC4R (human) (UniProt P32245).

Turning to α-MSH (peptide), the EC50 of α-MSH induced cAMP production, pGloSensor luciferase cAMP assay in transfected HEK293 cells (dose-response, 10 min stimulation) worked out at 2.5 nM in experiment [1], 3.3 nM in experiment [2] and 2.7 nM in experiment [3].
